What was measured:
Assay in all cases: GroEL-490 bead column capture of denatured serum, ATP elution, LC-MS-MS
[1] = biological target: hemopexin (Homo sapiens) (UniProt P02790)
[2] = biological target: v-raf murine sarcoma 3611 viral oncogene homolog 1 (Homo sapiens) (UniProt P10398)
[3] = biological target: MAX dimerization protein 5 (Homo sapiens) (UniProt Q8IWI9)
[4] = biological target: chondroitin sulfate proteoglycan 6 (bamacan) (Homo sapiens) (UniProt Q9UQE7)
[5] = biological target: hypothetical protein FLJ35834 (Homo sapiens)
[6] = biological target: E74-like factor 4 (ets domain transcription factor) (Homo sapiens) (UniProt Q99607)
[7] = biological target: angiomotin like 2 (Homo sapiens) (UniProt Q9Y2J4)
[8] = biological target: zinc finger protein 469 (Homo sapiens) (UniProt Q96JG9)
[9] = biological target: extra spindle poles like 1 (Homo sapiens) (UniProt Q14674)
[10] = biological target: apical protein of Xenopus-like (Homo sapiens) (UniProt Q13796)
[11] = biological target: neutral sphingomyelinase (N-SMase) activation associated factor (Homo sapiens) (UniProt Q92636)
[12] = biological target: inter-alpha (globulin) inhibitor, H2 polypeptide (Homo sapiens) (UniProt P19823)
[13] = biological target: hematopoletic protein 1 (Homo sapiens) (UniProt P55160)
Sequence of hematopoletic protein 1 (Homo sapiens) (P55160 whole entry): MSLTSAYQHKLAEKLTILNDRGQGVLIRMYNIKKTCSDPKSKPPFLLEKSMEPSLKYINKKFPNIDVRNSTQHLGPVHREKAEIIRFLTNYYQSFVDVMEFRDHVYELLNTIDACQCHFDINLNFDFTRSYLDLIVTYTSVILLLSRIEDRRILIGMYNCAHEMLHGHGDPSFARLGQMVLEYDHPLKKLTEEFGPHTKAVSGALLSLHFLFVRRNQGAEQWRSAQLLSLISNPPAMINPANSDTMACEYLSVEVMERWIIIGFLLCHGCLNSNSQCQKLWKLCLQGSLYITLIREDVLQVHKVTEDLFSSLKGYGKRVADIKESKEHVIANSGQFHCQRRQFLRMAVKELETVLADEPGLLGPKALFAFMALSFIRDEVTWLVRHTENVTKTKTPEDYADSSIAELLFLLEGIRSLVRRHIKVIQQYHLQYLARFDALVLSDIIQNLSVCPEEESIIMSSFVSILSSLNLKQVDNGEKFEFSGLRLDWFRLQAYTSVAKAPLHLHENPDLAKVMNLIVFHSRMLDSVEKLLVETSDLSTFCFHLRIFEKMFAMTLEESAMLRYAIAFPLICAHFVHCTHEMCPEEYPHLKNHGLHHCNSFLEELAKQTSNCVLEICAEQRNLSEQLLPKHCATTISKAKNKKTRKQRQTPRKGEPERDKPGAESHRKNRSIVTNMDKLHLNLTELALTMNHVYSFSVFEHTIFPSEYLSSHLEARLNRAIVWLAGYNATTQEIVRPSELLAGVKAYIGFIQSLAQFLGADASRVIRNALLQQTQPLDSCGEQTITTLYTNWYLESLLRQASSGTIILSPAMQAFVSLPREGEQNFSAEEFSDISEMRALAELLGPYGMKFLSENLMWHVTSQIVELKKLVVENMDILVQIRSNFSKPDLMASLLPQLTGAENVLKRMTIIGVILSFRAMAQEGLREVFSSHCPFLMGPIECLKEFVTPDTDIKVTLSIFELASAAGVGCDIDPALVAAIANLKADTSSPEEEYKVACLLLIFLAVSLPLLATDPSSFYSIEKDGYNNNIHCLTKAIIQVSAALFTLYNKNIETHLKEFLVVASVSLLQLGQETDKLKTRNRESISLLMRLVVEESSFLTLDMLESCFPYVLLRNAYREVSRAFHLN

[14] = biological target: coronin, actin binding protein, 1B (Homo sapiens) (UniProt Q9BR76)
[15] = biological target: ATPase, H+ transporting, lysosomal V0 subunit a isoform 2 (Homo sapiens) (UniProt Q9Y487)
[16] = biological target: 3-phosphoinositide dependent protein kinase-1 (Homo sapiens) (UniProt O15530)
[17] = biological target: H factor 1 (complement) (Homo sapiens) (UniProt P08603)
Sequence of H factor 1 (complement) (Homo sapiens) (P08603 19-1231 limits assumed): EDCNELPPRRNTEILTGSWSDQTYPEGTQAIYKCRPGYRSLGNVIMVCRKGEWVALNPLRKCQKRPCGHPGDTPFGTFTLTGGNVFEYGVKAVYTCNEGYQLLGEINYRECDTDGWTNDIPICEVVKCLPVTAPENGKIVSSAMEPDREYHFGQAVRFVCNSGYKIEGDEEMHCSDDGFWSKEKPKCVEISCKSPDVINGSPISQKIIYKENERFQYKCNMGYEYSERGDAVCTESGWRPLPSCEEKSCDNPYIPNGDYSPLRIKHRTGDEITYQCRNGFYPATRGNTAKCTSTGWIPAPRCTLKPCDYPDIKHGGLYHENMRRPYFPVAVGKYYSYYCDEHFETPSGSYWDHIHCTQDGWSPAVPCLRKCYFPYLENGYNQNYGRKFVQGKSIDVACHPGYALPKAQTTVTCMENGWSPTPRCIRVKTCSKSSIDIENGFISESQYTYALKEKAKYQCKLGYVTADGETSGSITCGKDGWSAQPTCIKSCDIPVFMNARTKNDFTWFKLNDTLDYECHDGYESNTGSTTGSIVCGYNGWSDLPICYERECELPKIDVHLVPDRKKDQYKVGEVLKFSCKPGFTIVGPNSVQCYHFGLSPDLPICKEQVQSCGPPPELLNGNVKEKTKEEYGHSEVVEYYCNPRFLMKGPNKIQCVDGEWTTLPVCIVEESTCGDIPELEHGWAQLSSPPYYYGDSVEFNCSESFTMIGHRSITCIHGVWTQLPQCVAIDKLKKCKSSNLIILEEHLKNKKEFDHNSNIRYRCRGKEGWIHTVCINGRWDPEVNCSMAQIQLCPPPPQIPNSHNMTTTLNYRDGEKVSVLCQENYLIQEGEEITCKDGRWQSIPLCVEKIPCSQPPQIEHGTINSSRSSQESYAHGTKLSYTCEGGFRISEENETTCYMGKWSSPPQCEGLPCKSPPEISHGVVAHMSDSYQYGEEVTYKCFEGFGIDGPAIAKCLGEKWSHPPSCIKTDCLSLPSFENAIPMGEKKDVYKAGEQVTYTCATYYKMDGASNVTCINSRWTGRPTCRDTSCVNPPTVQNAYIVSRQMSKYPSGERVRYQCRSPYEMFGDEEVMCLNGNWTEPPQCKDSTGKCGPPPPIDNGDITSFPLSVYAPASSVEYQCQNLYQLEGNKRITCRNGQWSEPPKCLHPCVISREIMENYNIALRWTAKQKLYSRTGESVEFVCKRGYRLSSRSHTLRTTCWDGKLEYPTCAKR

[18] = biological target: hypothetical protein XP_376158 (Homo sapiens)
[19] = biological target: complement component 4B proprotein (Homo sapiens) (UniProt P0C0L5)
[20] = biological target: T1, similar to Nonhistone chromosomal protein HMG-14 (High-mobility group nucleosome binding domain 1) (Homo sapiens) (UniProt P05114)
T1 sequence (looked up): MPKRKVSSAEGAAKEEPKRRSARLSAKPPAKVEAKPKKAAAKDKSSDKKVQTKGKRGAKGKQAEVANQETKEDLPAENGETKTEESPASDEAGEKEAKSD

[21] = biological target: DNA polymerase theta isoform 1 (Homo sapiens) (UniProt O75417)
[22] = biological target: DNA fragmentation factor, 45 kD, alpha polypeptide (Homo sapiens) (UniProt O00273)
Sequence of DNA fragmentation factor, 45 kD, alpha polypeptide (Homo sapiens) (O00273 whole entry, the tested form may be a part): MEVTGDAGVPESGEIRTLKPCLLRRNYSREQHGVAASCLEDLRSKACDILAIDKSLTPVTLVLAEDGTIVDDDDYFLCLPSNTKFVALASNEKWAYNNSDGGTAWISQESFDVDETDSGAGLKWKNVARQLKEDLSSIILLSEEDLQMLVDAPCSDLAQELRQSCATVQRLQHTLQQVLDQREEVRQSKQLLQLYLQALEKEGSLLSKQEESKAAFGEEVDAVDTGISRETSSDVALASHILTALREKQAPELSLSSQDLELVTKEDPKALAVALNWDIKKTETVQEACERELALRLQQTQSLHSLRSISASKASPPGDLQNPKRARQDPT

[23] = biological target: LUC7-liKe 2 (Homo sapiens) (UniProt Q9Y383)
[24] = biological target: solute carrier family 4, anion exchanger, member 2 (erythrocyte membrane protein band 3-liKe 1) (Homo sapiens) (UniProt P04920)
[25] = biological target: triple functional domain (PTPRF interacting) (Homo sapiens) (UniProt O75962)
[26] = biological target: alpha 2 macroglobulin precursor (Homo sapiens) (UniProt P01023)
[27] = biological target: Hpall tiny fragments locus 9C isoform2 (Homo sapiens) (UniProt Q8IZ69)
[28] = biological target: target of myb1 (Homo sapiens) (UniProt O60784)
[29] = biological target: similar to KIAA1074 protein (Homo sapiens) (UniProt Q9UPS8)
[30] = biological target: Rho GTPase activating protein 5 (Homo sapiens) (UniProt Q13017)
Sequence of Rho GTPase activating protein 5 (Homo sapiens) (Q13017 whole entry): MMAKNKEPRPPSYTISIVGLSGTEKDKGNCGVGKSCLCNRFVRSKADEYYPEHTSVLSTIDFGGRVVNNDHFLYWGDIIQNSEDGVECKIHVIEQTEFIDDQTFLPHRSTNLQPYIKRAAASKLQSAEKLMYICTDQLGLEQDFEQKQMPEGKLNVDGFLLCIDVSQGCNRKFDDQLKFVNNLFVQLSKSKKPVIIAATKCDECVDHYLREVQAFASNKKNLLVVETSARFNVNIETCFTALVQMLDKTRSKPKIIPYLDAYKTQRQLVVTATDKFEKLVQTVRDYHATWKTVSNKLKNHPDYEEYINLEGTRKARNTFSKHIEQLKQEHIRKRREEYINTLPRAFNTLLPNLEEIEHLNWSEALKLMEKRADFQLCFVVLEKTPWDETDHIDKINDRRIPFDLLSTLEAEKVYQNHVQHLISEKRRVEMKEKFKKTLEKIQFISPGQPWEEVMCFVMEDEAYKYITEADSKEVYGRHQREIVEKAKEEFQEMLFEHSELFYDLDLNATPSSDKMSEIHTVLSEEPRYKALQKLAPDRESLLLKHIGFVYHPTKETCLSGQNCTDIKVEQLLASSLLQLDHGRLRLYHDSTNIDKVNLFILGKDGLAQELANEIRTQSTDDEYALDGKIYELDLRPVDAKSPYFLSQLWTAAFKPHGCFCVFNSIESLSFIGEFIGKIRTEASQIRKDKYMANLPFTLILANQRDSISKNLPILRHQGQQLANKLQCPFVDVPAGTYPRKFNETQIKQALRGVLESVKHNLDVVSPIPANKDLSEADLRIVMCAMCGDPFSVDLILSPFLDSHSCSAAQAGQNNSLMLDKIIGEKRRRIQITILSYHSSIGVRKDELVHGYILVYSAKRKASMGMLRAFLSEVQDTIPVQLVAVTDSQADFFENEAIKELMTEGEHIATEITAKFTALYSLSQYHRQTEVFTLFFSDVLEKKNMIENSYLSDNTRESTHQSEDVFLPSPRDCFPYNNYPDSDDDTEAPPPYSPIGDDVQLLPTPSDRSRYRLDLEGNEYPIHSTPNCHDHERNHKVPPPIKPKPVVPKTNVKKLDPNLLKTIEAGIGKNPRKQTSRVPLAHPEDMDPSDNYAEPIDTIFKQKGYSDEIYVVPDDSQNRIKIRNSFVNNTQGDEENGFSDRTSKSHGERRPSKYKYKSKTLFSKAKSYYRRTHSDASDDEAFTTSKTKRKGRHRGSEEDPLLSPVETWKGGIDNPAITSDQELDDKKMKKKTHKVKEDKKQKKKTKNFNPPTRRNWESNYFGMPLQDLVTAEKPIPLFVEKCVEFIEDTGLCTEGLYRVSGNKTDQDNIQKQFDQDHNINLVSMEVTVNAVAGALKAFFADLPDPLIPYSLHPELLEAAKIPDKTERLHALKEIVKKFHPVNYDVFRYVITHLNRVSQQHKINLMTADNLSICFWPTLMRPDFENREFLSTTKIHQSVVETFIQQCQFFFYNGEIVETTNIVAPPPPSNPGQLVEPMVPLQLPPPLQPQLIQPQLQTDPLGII

[31] = biological target: glutaminase C (Homo sapiens) (UniProt O94925)

Sequence of GroEL having Aspartate 490 substituted with Cysteine, biotinylated and conjugated onto NeutrAvidin beads (A1AJ51 whole entry D490C): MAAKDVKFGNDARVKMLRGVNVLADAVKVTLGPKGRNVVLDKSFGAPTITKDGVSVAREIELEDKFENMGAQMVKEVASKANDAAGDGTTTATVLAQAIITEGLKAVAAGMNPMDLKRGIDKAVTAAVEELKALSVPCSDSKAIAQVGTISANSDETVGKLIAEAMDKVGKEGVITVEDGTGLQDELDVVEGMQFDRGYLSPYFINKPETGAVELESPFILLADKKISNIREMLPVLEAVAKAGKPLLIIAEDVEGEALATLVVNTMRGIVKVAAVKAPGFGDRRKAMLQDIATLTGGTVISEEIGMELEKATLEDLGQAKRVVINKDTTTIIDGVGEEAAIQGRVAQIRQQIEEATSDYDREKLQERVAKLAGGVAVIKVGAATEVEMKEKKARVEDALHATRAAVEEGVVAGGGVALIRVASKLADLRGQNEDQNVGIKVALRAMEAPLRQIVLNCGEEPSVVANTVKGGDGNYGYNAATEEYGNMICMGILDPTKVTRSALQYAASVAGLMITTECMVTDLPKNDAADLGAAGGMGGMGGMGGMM

Spectrum Count [1]: 35 count | Spectrum Count [2]: 13 count | Spectrum Count [3]: 33 count | Spectrum Count [4]: 9 count | Spectrum Count [5]: 9 count | Spectrum Count [6]: 17 count | Spectrum Count [7]: 17 count | Spectrum Count [8]: 13 count | Spectrum Count [9]: 9 count | Spectrum Count [10]: 11 count | Spectrum Count [11]: 9 count | Spectrum Count [12]: 10 count | Spectrum Count [13]: 35 count | Spectrum Count [14]: 28 count | Spectrum Count [15]: 12 count | Spectrum Count [16]: 13 count | Spectrum Count [17]: 12 count | Spectrum Count [18]: 15 count | Spectrum Count [19]: 11 count | Spectrum Count [20]: 13 count | Spectrum Count [21]: 24 count | Spectrum Count [22]: 14 count | Spectrum Count [23]: 15 count | Spectrum Count [24]: 12 count | Spectrum Count [25]: 14 count | Spectrum Count [26]: 43 count | Spectrum Count [27]: 34 count | Spectrum Count [28]: 30 count | Spectrum Count [29]: 28 count | Spectrum Count [30]: 12 count | Spectrum Count [31]: 27 count
Substance: GroEL having Aspartate 490 substituted with Cysteine, biotinylated and conjugated onto NeutrAvidin beads (from UniProt A1AJ51 1-548)
